Data reported in patent publication US7176008 (MERCK, dated 2007).

Columns and labels:
[1] = biological target: T1, activated thrombin-activatable fibrinolysis inhibitor (human TAFIa) (human, UniProt Q96IY4 115-423)
T1 construct: Purified from human serum in the presence of 5 mM epsilon-aminocaproic acid; also called carboxypeptidase U
T1 sequence (looked up): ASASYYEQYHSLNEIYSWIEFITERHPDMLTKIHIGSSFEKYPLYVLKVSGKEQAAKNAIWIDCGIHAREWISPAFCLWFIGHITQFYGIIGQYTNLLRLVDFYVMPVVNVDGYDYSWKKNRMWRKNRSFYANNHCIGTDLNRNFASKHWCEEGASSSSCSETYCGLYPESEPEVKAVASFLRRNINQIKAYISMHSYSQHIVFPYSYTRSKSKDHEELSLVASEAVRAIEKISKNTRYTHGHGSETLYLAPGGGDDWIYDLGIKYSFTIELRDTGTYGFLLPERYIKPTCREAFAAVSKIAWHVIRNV

human carboxypeptidase B = biological target: T2, human carboxypeptidase B (human, UniProt P15086 111-417)
T2 construct: also called CPB
T2 sequence (looked up): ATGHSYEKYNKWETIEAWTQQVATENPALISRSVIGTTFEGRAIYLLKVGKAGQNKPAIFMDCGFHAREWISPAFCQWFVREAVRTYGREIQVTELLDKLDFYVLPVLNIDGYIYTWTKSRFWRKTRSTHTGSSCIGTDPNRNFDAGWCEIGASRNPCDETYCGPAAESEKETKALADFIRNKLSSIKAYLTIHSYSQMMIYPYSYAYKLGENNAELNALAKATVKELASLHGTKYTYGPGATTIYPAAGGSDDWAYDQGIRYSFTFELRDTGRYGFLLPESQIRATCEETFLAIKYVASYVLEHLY

- binding result [1]: binds
- binding result (human carboxypeptidase B): binds
B1: potato carboxypeptidase inhibitor (peptide, UniProt P01075 1-39, looked up)
chain: QQHADPICNKPCKTHDDCSGAWFCQACWNSARTCGPYVG
notes: also called PCI
